Substitutions are numbered along the chain they refer to. In names and notes the source's numbering stands.
B1: h26D3-HC8/LC5 (Fab, V domains shown)
VH: EVQLVQSGAEVKKPGSSVKVSCKASGYIFTDYNMDWVRQAPGQGLEWIGDINPDYDTTSANEKFKGRATLTVDKSTSTAYMELSSLRSEDTAVYYCARGGYSGSSYYHPMDYWGQGTLVTVSS
VL: DIQMTQSPSSVSASVGDRVTITCKSSQSLLYSTNQKNYLAWYQQKPGKAPKLLIYWASTRESGVPSRFSGSGSGTDFTLTISSLQPEDFATYYCQQAFIYPRTFGQGTKVEIK
notes: His-tagged Fab; also called double alanine mutant of h26D3 (VH Y60A, VL Y97A)
B2: h26D3-HC10/LC1 (Fab, V domains shown)
VH: B1 VH with A60Y, Y106A
VL: B1 VL with Y31A, A97Y
notes: His-tagged Fab; also called double alanine mutant of h26D3 (VH Y106A, VL Y31A)
B3: h26D3-HC10/LC5 (Fab, V domains shown)
VH: B1 VH with A60Y, Y106A
VL: B1 VL
notes: His-tagged Fab; also called double alanine mutant of h26D3 (VH Y106A, VL Y97A)

Target: T1, ectodomain of human TfR1 (His10-hTfR1; SEQ ID NO:110) (human, UniProt P02786 89-760)
T1 construct: also called ectodomain of hTfR1
Experiment: indirect ELISA: plate coated with 1 µg/ml hTfR1 ectodomain, Fab in 1:3 serial dilution, anti-human IgG F(ab')2-HRP
Procedure: For the indirect ELISA, half area 96-well plates (Corning, #3690) were coated with 1 μg/ml recombinant ectodomain of hTfR1 (SEQ ID NO:110) in PBS overnight at 4° C. The coated plates were blocked using Pierce protein-free blocking solution (Thermo Fisher Scientific, #37572) for 1 h at room temperature with shaking and washed four times in PBS containing 0.1% TWEEN-20. Serial dilutions (1:3) of various expressed constructs in incubation buffer (1% BSA, 0.1% TWEEN-20 in PBS) were incubated for 1 h at room temperature. […] Following four wash steps, K-Blue® Aqueous TMB substrate (Neogen, #331177) was added to the wells for 15 min at room temperature before the reaction was stopped with 1:1 dilution of 0.5 M H₂SO₄. The optical density at 450 nm was recorded (Spark, Tecan) and background signal was subtracted before analysis.

Binder	binding result
B1	binds
B2	binds
B3	binds

Source: patent US20250388664A1 (BIOARCTIC, published 2025)
